Several values for one entry are separate records, joined by “and”; a condition that tells them apart may be missing. Equal entries are not always repeated. Where two headings read alike, the source gives them in different places.
Experiments:
[1] = molecular target: T1, Transmembrane domain peptide of AM2 (TM-AM2), wild type (influenza A virus (strain not stated)); experiment: native MS
[2] = molecular target: T1, Transmembrane domain peptide of AM2 …; experiment: native MS; remark: listed apart in the source

Binder: SDPLVVAASIIGILHLILWIL (modifications not checked) [Transmembrane domain peptide of AM2 (TM-AM2), wild type]
- stoichiometry N [1]: 6
- stoichiometry N [2]: 2 and 4

Source: publication PMC8665133
